The target of the assay is Gαi/o proteins (human (endogenous in HEK293T)) (UniProt P63096).
Sequence of UniProt P63096 (P63096 whole entry): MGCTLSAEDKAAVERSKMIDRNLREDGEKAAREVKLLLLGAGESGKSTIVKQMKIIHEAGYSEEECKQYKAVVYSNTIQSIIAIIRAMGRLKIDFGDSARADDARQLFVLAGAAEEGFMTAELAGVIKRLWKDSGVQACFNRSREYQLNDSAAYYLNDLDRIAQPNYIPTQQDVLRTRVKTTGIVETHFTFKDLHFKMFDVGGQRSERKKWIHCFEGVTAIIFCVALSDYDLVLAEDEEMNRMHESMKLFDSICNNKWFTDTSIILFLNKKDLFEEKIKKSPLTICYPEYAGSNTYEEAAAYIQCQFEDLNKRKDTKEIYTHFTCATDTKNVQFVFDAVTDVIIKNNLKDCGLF

As to “F318K mutant of Flag-tagged rat MCHR1 (from UniProt P97639 1-353) (receptor)”, the EC50 of MCH for stimulation of [35S]GTPγS binding to membranes of transfected HEK293T cells (0.001-1000 nM MCH, 30 min, 30°C) is 0.47 nM; the basal [35S]GTPγS binding to membranes (no MCH), percent of Flag-MCHR1 is 97.6%; the maximal [35S]GTPγS binding to membranes with 1 μM MCH, percent of basal was 191 % of basal.

As to “Flag-MCHR1 (rat melanin-concentrating hormone receptor 1 with a Flag epitope tag before the first methionine) (from UniProt P97639 1-353)”, the EC50 of MCH for stimulation of [35S]GTPγS binding to membranes of transfected HEK293T cells (0.001-1000 nM MCH, 30 min, 30°C) was 0.23 nM and the maximal [35S]GTPγS binding to membranes with 1 μM MCH, percent of basal is 208 % of basal.

These data come from article PMC3515998.
